# Experimental data taken from EP0331471A1, “High molecular weight prodrug derivatives of antiinflammatory drugs” (Larsen, Claus Selch, priority 1988, dated 1989).
# Like-named read-outs stand apart in the source and are kept apart here.
# Assays:
# [1] = pigs, from a previous study (8), cited from earlier work
# [2] = Hydrolysis (release kinetics) of dextran ester prodrugs in aqueous buffer solution; format: physicochemical; conditions: for t(50%) at pH 7.40 and 37°C: 0.05 M phosphate buffer pH 7.40, 37°C; for t(10%) / Arrhenius equation: pH 4.48; for t(10%): time for 10% degradation, calculated from Arrhenius equations; for Ea: hydrolysis at pH 4.48, from slopes of Arrhenius type plots; for Arrhenius equation: kobs in hours⁻¹, T in degrees Kelvin; for kobs: ionic strength 0.5
# Experimental: Release kinetics of the parent drug compounds from the corresponding dextran prodrugs of this invention was carried out in aqueous buffer solution over the pH range 4.5 - 10.0 at 37°C (and in order to determine the activation energies, at pH 4.5, from Arrhenius type plots at 50, 60, 65 and 70°C). […] The 1. order rate constants were derived from the slope of linear plots of log(B∞ -Bt) versus time and for the slow reactions by employing the initial rate method (e.g. (dBt/dt)i = kobsAo), where B∞ and Bt refer to the concentrations of regenerated parent drug at infinity and time t, respectively. (dBt/dt)i repre­sents the initial rate of parent drug formation, whereas kobs and Ao are the pseudo-first-order rate constant and the initial dextran prodrug concentration, respectively. For the fast reactions the initial concentration of the conjugates was in the range 5 - 25 mg/10 ml and for the slow reactions in the range 50 - 250 mg/10 ml. At various times an aliquot of the solutions was withdrawn and analyzed by HPLC for liberated free drug and in some cases for intact dextran prodrug.
# A HPLC method was used for the determination of the generated free NSAIDs (the HPLC procedure was further used for determination of the degree of substitution of the polysaccharide prodrugs). […] The flow rate was 1.0 ml/min and the column effluent was monitored at 266 nm. […] Quantitation of the compounds was done by measurements of peak heights in relation to those of standards chromatographed under identical conditions.
# [3] = Water solubility of the conjugates (25°C)
Compound,t(50%) at pH 7.40 and 37°C [2] [hours],water-solubility [3] [% w/v],further results
"COc1ccc2cc([C@H](C)C(=O)O)ccc2c1 [NAPROXEN, (+)-2-(6-methoxy-2-napthyl)propionic acid]",–,–,"β ([1]; i.v., 3.6 mg naproxen equivalents): 0.048 h⁻¹; β ([1]; naproxen in plasma, p.o.): 0.049 h⁻¹"
O-[2-(3-Benzoylphenyl)propionyl]-dextran T-10 [Example 51],93,> 20,–
O-[2-(3-Benzoylphenyl)propionyl]-dextran T-500 [Example 52],91,> 20,–
O-[2-(4-Isobutylphenyl)propionyl]-dextran T-10 [Example 54],140,> 20,–
O-[2-(4-Isobutylphenyl)propionyl]-dextran T-70 [Example 53],144,–,"t(10%) ([2]; 5°C): 31.5 years; t(10%) ([2]; 25°C): 1.68 years; Ea [2]: 101.0 kJ/mol; Arrhenius equation [2]: 1n kobs =28.9 - 12,140/T (n = 5, r = 0.97)"
O-[2-(4-Isobutylphenyl)propionyl]-dextran T-500 [Example 55],141,> 20,–
"O-[3-(11β,17-dihydroxy-6α-methylpregna-1,4-diene-3,20-dione-21-oxycarbonyl)propionyl]-dextran T-40 [Example 47]",–,> 20,–
"O-[3-(11β,17-dihydroxy-6α-methylpregna-1,4-diene-3,20-dione-21-oxycarbonyl)propionyl]-dextran T-70 [Example 46]",–,> 20,–
"O-[3-(11β,17-dihydroxy-6α-methylpregna-1,4-diene-3,20-dione-21-oxycarbonyl)propionyl]-dextran T-500 [Example 48]",–,> 20,–
"O-[3-(11β,17-dihydroxy-pregn-4-ene-3,20-dione-21-oxycarbonyl)propionyl]-dextran T-70 [Example 49]",–,> 20,–
"O-[[2-(2,6-dichloroanilino)phenyl]acetyl]-dextran T-10 [Example 60]",–,> 20,–
"O-[[2-(2,6-dichloroanilino)phenyl]acetyl]-dextran T-70 [Example 59]",–,> 20,"t(10%) ([2]; 5°C): 21.3 years; t(10%) ([2]; 25°C): 0.65 years; Ea [2]: 120.2 kJ/mol; Arrhenius equation [2]: 1n kobs = 37.6 - 14,450/T (n = 5, r = 0.99); kobs ([2]; pH 9.54, 37°C): 3.01 h⁻¹"
"O-[[2-(2,6-dichloroanilino)phenyl]acetyl]-dextran T-500 [Example 61]",–,> 20,–
O-[±)-2-(3-phenoxyphenol)propionyl]-dextran T-10 [Example 57],128,> 20,–
O-[±)-2-(3-phenoxyphenol)propionyl]-dextran T-70 [Example 56],130,> 20,"t(10%) ([2]; 5°C): 59.7 years; t(10%) ([2]; 25°C): 2.72 years; Ea [2]: 106.3 kJ/mol; Arrhenius equation [2]: 1n kobs = 30.6 - 12,790/T (n = 5, r = 0.99); kobs ([2]; pH 10.00, 37°C): 1.67 h⁻¹"
O-[±)-2-(3-phenoxyphenol)propionyl]-dextran T-500 [Example 58],131,> 20,–
